Source: the supplement of paper PMC12764529
± gives the half width of the 95% confidence interval.

Key:
[1] = folding stability dG unfold from chymotrypsin proteolysis; higher = more stable
Summary of the method: (§1)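 Designed mini-proteins (under 80 residues, no cysteine) in a PA-tagged cDNA display construct were digested with trypsin and chymotrypsin. Each protease was used at 11 concentrations (threefold dilutions) plus a no-protease condition, followed by sequencing. K50 was inferred by Bayesian fitting of sequencing counts, and unfolding free energy was derived against a sequence-predicted unfolded-state K50 and a shared folded-state K50, per protease or combined. Only designs with AlphaFold2 dimer inter-PAE above 15 were kept.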

[2] = folding stability dG unfold from trypsin proteolysis; higher = more stable
Summary of the method: as §1

[3] = folding stability dG unfold (combined trypsin and chymotrypsin); higher = more stable
Summary of the method: as §1

Sequence | folding stability dG unfold [1] [kcal/mol] | folding stability dG unfold [2] [kcal/mol] | folding stability dG unfold [3] [kcal/mol]
SAGGSAGGSAGKKKVLMTVDEIEKKLGKKIKPGSLVLVEVENGKVKKIEIFDVKKKPKKKSAGGSAGGSAGG [r11_616_TrROS_Hall] | 1.07 ± 0.076 | 0.943 ± 0.09 | 1 ± 0.21
SSYTVLEEKVESDPNKDSLTYLTLKTPDGRELTVTEPVKKVDDSWITNSTLTDPVGGRTTTSTTTVKLSGSA [r9_269_JUSTAS] | -0.409 ± 0.17 | -0.977 ± 0.29 | -0.487 ± 0.13
SAGGSLPELLKLAKELAKKLGAKDLTAKESGEITIKSPENITITVSTEDGEPVVTINNTSTSSTIPLSAGGS [r16_296_JUSTAS] | -0.185 ± 0.22 | -0.36 ± 0.32 | -0.18 ± 0.26
SAGGSIKIDEIEPDPPGDRVKVKMDIPVPMYDPNGKPKEPMPIKITAEARVDPENGELAINMDIEMSAGGSA [r2_220_TrROS] | 1.4 ± 0.33 | 2.73 ± 0.41 | 1.67 ± 0.53
SAGGSAGGMLPAEELADYLEKNPGIEIEDIEPPDPGYITVKIKFPRPDPNGEKHKVEVTIQFPVSAGGSAGG [r6_154_TrROS] | 1 ± 0.075 | 1.91 ± 0.24 | 1.4 ± 0.32
SAGGSVTITSITSIDTSSLSPDSVVTADVPDGKPVLIKGKVPPDGSVILTFYTPDGKPVATFTIPSSAGGSA [r2_323_JUSTAS] | 0.779 ± 0.056 | 0.508 ± 0.017 | 0.669 ± 0.06
SAMVLDLTELLREKAAEIRKADPRPLTPEELRELAREAAEELAKETGKPITEIRVEETDEWPRITAVVLSAG [r14_147_JUSTAS] | -0.358 ± 0.3 | 1.04 ± 0.044 | 0.461 ± 0.24
SAGGSAIKLPPGVKIEYHMHPDGYMTITIEYPNGRPIEIPMRMDPNGPREMTPDQIRDFIKELLKNSAGGSA [r15_780_TrROS] | 2.33 ± 0.026 | 2.42 ± 0.038 | 2.4 ± 0.049
SAGMSFTVTTVGSPGPTTPRVVIEPPDRVVVISRLPDGSYEVRYYDPSPPVELERRRLAPEEAIAELLSAGG [r19_188_JUSTAS] | 0.647 ± 0.098 | 0.385 ± 0.095 | 0.575 ± 0.077
SAGGSAGGSAGSMTSISVDVPVPGKNVVTVTVTLPPNTTTVTITVEPLPNGELKVTVETSSAGGSAGGSAGG [r11_657_JUSTAS] | 2.5 ± 0.061 | 2.89 ± 0.07 | 2.78 ± 0.1
SAGGSAGGSAGPVKLTLEVPEEEAEELAEALREAGYEVEIERDEETKRLRVTITVDPEALSAGGSAGGSAGG [r11_1043_TrROS_Hall] | 2.2 ± 0.056 | 1.78 ± 0.095 | 2.01 ± 0.12
SAGGSAGGSAGGSSYQLKLEAEFLVGDSSGKLYKVKLTITVNEDGSISIDLEVLSVFDVSAGGSAGGSAGGS [r4_496_TrMRF] | 5.46 ± 0.11 | 4.16 ± 0.2 | 5.41 ± 0.16
SAGGSAGGSAGKKKYKIVSIEIERNKDGNSLTVKIKLENGKELTLTFPTEEDLKNLKIKASAGGSAGGSAGG [r11_711_TrROS_Hall] | 3.104 ± 0.028 | 1.59 ± 0.1 | 2.78 ± 0.075
SAGGSAGGSMPLKLVELKPLEESTGENGVPTVRVELVLERPGERITVELEVSPEEIEALIKKLLSAGGSAGG [r6_379_JUSTAS] | 1.07 ± 0.2 | 2.03 ± 0.074 | 1.56 ± 0.19
SPPETETYPIPNPEDGKPLMDITIERNPENGNWKVEIYWPGGKKKEVEFPPNETIPIDDLPPGFWVTITRSA [r9_1150_TrROS] | 1.56 ± 0.069 | 0.532 ± 0.12 | 1.21 ± 0.16
SAGGSAGGMIEVSYDPVKNRYIATFKFPEGEVTITLPADLSPEEKAAAIKAAAEAAAKEKGIKLSAGGSAGG [r6_679_JUSTAS] | 2 ± 0.05 | 1.68 ± 0.025 | 1.88 ± 0.058
SAGGIEELAKALGIEEVEVTSIDPETREVTVRVRVRGPDGEERTLTVKIRLEPAPPPVRTFSEEELKSSAGG [r13_608_TrROS_Hall] | 1.06 ± 0.04 | 1.78 ± 0.029 | 1.45 ± 0.087
SAGGSAGGSAGLIVTHPDGGVTTLRLTLTFTFEGPVGPPKTVTFEFTLTVAPNGTEVTLESAGGSAGGSAGG [r11_271_TrMRF] | 5.11 ± 0.11 | 3.34 ± 0.16 | 4.72 ± 0.27
SSMSIEIKEVEEDPVGSEAKPRVVREKVTLEGTEVELTVTVTEAPSGETTVTTTLTFPGSGKTFSFTFDTSA [r9_241_JUSTAS] | 3.05 ± 0.044 | 1.9 ± 0.052 | 2.62 ± 0.058
SPVTVTITLPNGETITLTFPAGMTAEELKAAVLAELKRLLPPGAKIEVVDIEVTEVVAPGETVTVTVRLTSA [r9_178_TrROS_Hall] | 4.61 ± 0.15 | 3.36 ± 0.13 | 4.16 ± 0.11
SAMIMIRVEYPNGKTWPIMIPLRTPDGDPTKEEVEEIAERIADEIAEEHGGDNVKIEIQVMPMPPEENPSAG [r14_378_TrROS] | 1.5 ± 0.12 | 2.23 ± 0.081 | 1.82 ± 0.24

Sequence | folding stability dG unfold [1] [kcal/mol] | folding stability dG unfold [2] [kcal/mol] | folding stability dG unfold [3] [kcal/mol]
SAGGSGMTVEVSVDPSTGTIRIKIKYGDKEYEVTAPVTRLPDGTYAVELKISAPNGPLLETKEITLPLSAGG [r13_59_JUSTAS] | 1.76 ± 0.024 | 2.46 ± 0.086 | 2.06 ± 0.087
NKRIKIFIGGDDPSMAEQIQQWLQDNGYNVEVHVFTSPEDMKKAREWAEQNDIVIVIQVPPPPPKDPGDNNS [r1_497_TrROS] | 3.487 ± 0.024 | 2.48 ± 0.12 | 3.3 ± 0.074
SAGGSKPEKIKVVSVEVFPDGLIKVKVKTESGYEATALIVKLPGDKYLIFLTIPANGKPFVFELPASAGGSA [r2_361_TrMRF] | 2.61 ± 0.031 | 2.36 ± 0.059 | 2.54 ± 0.072
SAGWYIKIKIEYPGDGQKKLEVPIPIPSPEEAKEFADEIADMLAEQNGGNIKIEVEVFRLPPVPPEDQGSAG [r5_87_TrROS] | 2.2 ± 0.15 | 0.544 ± 0.11 | 1.82 ± 0.21
SMKPGELVLVTETETRTFTVTPEDLPPGWKVKEVKVTVTRVALFRVTPDGRVELVEEVTSVEIEVTLEPESA [r9_747_TrROS_Hall] | 4.54 ± 0.1 | 4.39 ± 0.42 | 4.52 ± 0.22
SAGGSAGGSAGGVVVVEVEIRLSDEEIEALKDLGISAEDLTLRVTVVVELPPPPPAEEESAGGSAGGSAGGS [r10_1149_TrROS_Hall] | 1.04 ± 0.13 | 2.23 ± 0.2 | 1.5 ± 0.21
SAGGSAGGVLRMVRRALKNGKNRPIVIYVPEPEQRNFIKWLKDEWPGIKIKVVPPDQMPPNQIISAGGSAGG [r6_87_TrROS] | 1.31 ± 0.068 | 1.42 ± 0.033 | 1.46 ± 0.094
SAGGSAGGSASTSEKIDYPNPPITVTRLPNGVVLVTYSDSNTTTVIPESVLATLPPTVPLFSAGGSAGGSAG [r3_256_JUSTAS] | 1.12 ± 0.013 | 1.58 ± 0.048 | 1.33 ± 0.043
SAGGEWRKITVPIKYRFPPGESIDSIANELANLPGLKVEVNVEYEKDPDGRYYMEIPVEIEIPPGAPISAGG [r13_590_TrROS] | 0.669 ± 0.16 | 0.341 ± 0.074 | 0.576 ± 0.12
SAGGSAGGSMELVIPKEEVEKMSEEVVKKIKELAKKANISISETEDSLVIPIKKVSEKVIKELSAGGSAGGS [r12_945_JUSTAS] | 0.497 ± 0.045 | -0.325 ± 0.075 | 0.232 ± 0.1
SAGKWVTIEIPIYIPGNPSQLKDLVEEIANILAAHGMKINVDVEVYPVDDYYIVKITVTVRMPPGMPIISAG [r5_217_TrROS] | 3.23 ± 0.1 | 3.75 ± 0.17 | 3.41 ± 0.19
SAGGSAGGSITIEIPGASSLEEAIEQAEVVVNEIVKKGYPGKPIKVTVILPGTGEAFTFEVPLESAGGSAGG [r6_237_TrMRF] | 2.4 ± 0.047 | 2.02 ± 0.11 | 2.19 ± 0.12
SAGMETIEVPLPVEEIKEALDAGLSPEEIARLLAEETGEEVEIEVGGRKITITRNEDGELIVRIEVKPDSAG [r5_343_TrROS_Hall] | 2.22 ± 0.091 | 2.51 ± 0.085 | 2.36 ± 0.2
SAGGSAAITFPSDKTATVLSEEYDPVKKTTTVKMKVGNKEVTATLSPDGTVTIKLPDGKEETYPVGSAGGSA [r15_111_JUSTAS] | 1.41 ± 0.016 | 1.18 ± 0.057 | 1.35 ± 0.099
SAGGSAMKITITVEKKEDGTYRVTIEIDGKKIEIEMSVEDLKKKLEELAKELFPDKPIKVEVKPVPSAGGSA [r15_925_TrROS_Hall] | 4.13 ± 0.36 | 2.87 ± 0.13 | 3.83 ± 0.2
SAGGSAGGSAGGSGSMSVSGGPSVIVVTLPGGEKVVLPLDELDELYKLPYVSATTVSLPSAGGSAGGSAGGS [r4_348_JUSTAS] | 0.24 ± 0.18 | 1.45 ± 0.065 | 1.13 ± 0.14
SAGGSAGGEIEILPGAKIVRVERRKDGSLLIVVEVDGKLYLFRFKDGKVEVIELPEGASLEELLSAGGSAGG [r6_680_TrROS_Hall] | 4.99 ± 0.086 | 4.23 ± 0.14 | 4.92 ± 0.087
SAGGPDWQTIRITFWFDSPEDAEEEVRNIARTMGLPPEGIKVEITDFEPREVNGKNYYMVEAEITIPSAGGS [r16_240_TrROS] | 4.274 ± 0.035 | 2.95 ± 0.044 | 3.93 ± 0.062
SAGGRGEGTMNDPEGGRVYKSEYDPGDGQAEIEPKPVPPVPPIDAEELAEELEQKNGLPNDDVEDMLGSAGG [r13_824_TrROS] | -0.208 ± 0.44 | -0.336 ± 0.084 | -0.309 ± 0.27
SAGGSAGGSYTVETSPVPPGGLLKTYTSPDGVVTTTLYSPDGTVGETTTTPVPPVVPPDPAAAASAGGSAGG [r6_239_JUSTAS] | 1.33 ± 0.053 | -0.067 ± 0.075 | 0.921 ± 0.11
SAGGSAGGSAGVPVVVRTVTGPEGGYVVVEFPNLKKVVLLPFTDGKPRPVVFDTDEVLKLVSAGGSAGGSAG [r3_426_TrMRF] | 0.722 ± 0.083 | 1.04 ± 0.04 | 0.825 ± 0.093
